Assay [1] addresses T1, recombinant KIR3DL1 (extracellular domain-Fc-Avi, in-house) (human).
T1 construct: IL-2 signal peptide left out; also called soluble KIR3DL1
The assay can be described thus: flow cytometry, KIR-Fc 0.1 µM on scFv-K562 cells. On the technique in general: A flow cytometer gives signals particle by particle.

The target in assay [2] is T2, recombinant human KIR3DS1/CD158e2 Fc chimera protein (4136-KR-050, R&D Systems) (human, UniProt Q14943 22-340, limits assumed).
T2 construct: Bought Fc chimera; also called soluble KIR3DS1; recombinant KIR3DS1
The assay is described as follows: flow cytometry, KIR-Fc on scFv-K562 cells.

For assay [3], the target named is T3, NKG2C (Fc, R&D system 138-NK-050) (UniProt P26717 94-231, limits assumed).
T3 construct: Bought Fc-tagged protein
The assay can be described thus: flow cytometry, tagged protein on scFv-K562 cells.

In assay [4] the target is T2, recombinant human KIR3DS1/CD158e2 Fc …. The assay is described as follows: flow cytometry, tagged protein on scFv-K562 cells.
For assay [5], the target named is T4, CD32b/c (Fc, R&D system 1875-CD-050) (UniProt P31994 46-217).
T4 sequence (looked up): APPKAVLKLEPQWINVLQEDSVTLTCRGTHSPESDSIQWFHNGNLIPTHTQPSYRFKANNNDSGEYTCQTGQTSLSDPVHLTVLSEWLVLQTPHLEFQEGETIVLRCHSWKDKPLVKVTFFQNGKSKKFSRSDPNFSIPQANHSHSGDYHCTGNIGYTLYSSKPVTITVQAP
The assay can be described thus: flow cytometry, tagged protein on scFv-K562 cells.

Assay [6] concerns the target T5, TIGIT (Fc, R&D system 9464-TG-050) (UniProt Q495A1 22-141).
T5 construct: Bought Fc-tagged protein
T5 sequence (looked up): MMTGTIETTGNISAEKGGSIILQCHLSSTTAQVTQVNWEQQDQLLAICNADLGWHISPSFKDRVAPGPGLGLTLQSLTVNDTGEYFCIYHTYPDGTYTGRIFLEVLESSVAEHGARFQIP
The assay can be described thus: flow cytometry, tagged protein on scFv-K562 cells.

The target in assay [7] is T6, KIR2DL1 (Fc, R&D system 1844-KR-050) (UniProt P43626 22-245).
T6 construct: Bought Fc-tagged protein
The assay can be described thus: flow cytometry, tagged protein on scFv-K562 cells.

Assay [8] addresses T7, KIR2DL5 (Fc, R&D system 6634-KR-050) (UniProt Q8N109 22-238, limits assumed).
T7 construct: Bought Fc-tagged protein
The assay is described as follows: flow cytometry, tagged protein on scFv-K562 cells.

Assay [9] concerns the target T8, NKG2E (Fc, R&D system 9759-NK-050) (UniProt Q07444 94-240, limits assumed).
T8 construct: Bought Fc-tagged protein
The assay is described as follows: flow cytometry, tagged protein on scFv-K562 cells.

In assay [10] the target is KIR2DS3 (Fc, prepared in-house) (UniProt Q14952 22-245, limits assumed). The assay is described as follows: flow cytometry, tagged protein on scFv-K562 cells.
In assay [11] the target is T9, KIR3DL3 (Fc, R&D system 10104-KR-050) (UniProt Q8N743 26-322, limits assumed).
T9 construct: Bought Fc-tagged protein
The assay can be described thus: flow cytometry, tagged protein on scFv-K562 cells.

Assay [12] concerns the target CD64 (Fc, R&D system 1257-FC-050) (UniProt P12314 16-288). The assay is described as follows: flow cytometry, tagged protein on scFv-K562 cells.
The target in assay [13] is T10, LILRB2 (His, R&D system 8429-T4-050) (UniProt Q8N423 22-458).
T10 construct: Bought His-tagged protein
The assay is described as follows: flow cytometry, tagged protein on scFv-K562 cells.

The target of assay [14] is T11, CD32a (Fc, R&D system 1330-CD-050) (UniProt P12318 36-218).
T11 sequence (looked up): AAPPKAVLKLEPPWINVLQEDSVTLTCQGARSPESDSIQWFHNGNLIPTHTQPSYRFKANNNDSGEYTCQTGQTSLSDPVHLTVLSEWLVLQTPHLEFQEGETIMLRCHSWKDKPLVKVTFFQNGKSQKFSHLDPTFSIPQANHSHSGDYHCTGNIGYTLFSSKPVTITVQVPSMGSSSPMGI
The assay can be described thus: flow cytometry, tagged protein on scFv-K562 cells.

Assay [15] addresses T12, KIR3DL1 (Fc, R&D system 1225-KR-050) (UniProt P43629 22-340).
T12 construct: Bought Fc-tagged protein
The assay is described as follows: flow cytometry, tagged protein on scFv-K562 cells.

Assay [16] deals with T13, LILRB1 (Fc, R&D system 2017-T2-050) (UniProt Q8NHL6 24-458).
T13 construct: Bought Fc-tagged protein
The assay is described as follows: flow cytometry, tagged protein on scFv-K562 cells.

In assay [17] the target is T14, NKp46 (Fc, R&D system 1850-NK-025) (UniProt O76036 22-258, limits assumed).
T14 construct: Bought Fc-tagged protein
The assay can be described thus: flow cytometry, tagged protein on scFv-K562 cells.

Assay [18] has as its target T15, NKp44 (Fc, R&D system 2249-NK-050) (UniProt O95944 22-190, limits assumed).
T15 construct: Bought Fc-tagged protein
T15 sequence (looked up): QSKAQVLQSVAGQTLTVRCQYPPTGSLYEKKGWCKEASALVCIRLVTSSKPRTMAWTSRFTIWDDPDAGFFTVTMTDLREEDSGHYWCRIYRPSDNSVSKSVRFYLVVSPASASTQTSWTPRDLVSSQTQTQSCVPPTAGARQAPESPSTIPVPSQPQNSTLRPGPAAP
The assay can be described thus: flow cytometry, tagged protein on scFv-K562 cells.

For assay [19], the target named is T16, NKp30 (Fc, R&D system 1849-NK-025) (UniProt O14931 19-138, limits assumed).
T16 construct: Bought Fc-tagged protein
T16 sequence (looked up): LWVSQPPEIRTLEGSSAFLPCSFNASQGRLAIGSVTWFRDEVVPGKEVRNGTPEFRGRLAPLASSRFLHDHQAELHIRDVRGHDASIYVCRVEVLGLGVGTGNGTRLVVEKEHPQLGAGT
The assay can be described thus: flow cytometry, tagged protein on scFv-K562 cells.

Assay [20] addresses CD16b (Fc, R&D system 1597-FC-050) (UniProt O75015 17-200, limits assumed). The assay can be described thus: flow cytometry, tagged protein on scFv-K562 cells.
The target in assay [21] is CD16a (Fc, R&D system 4325-FC-050) (UniProt P08637 17-208). The assay can be described thus: flow cytometry, tagged protein on scFv-K562 cells.
The target in assay [22] is T17, NKG2D (Fc, R&D system 1299-NK-050) (UniProt P26718 78-216).
T17 construct: Bought Fc-tagged protein
T17 sequence (looked up): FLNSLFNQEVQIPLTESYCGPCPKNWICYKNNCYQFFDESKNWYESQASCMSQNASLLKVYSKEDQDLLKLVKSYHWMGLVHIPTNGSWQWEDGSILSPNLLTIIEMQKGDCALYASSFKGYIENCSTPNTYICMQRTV
The assay is described as follows: flow cytometry, tagged protein on scFv-K562 cells.

Assay [23] concerns the target T18, KIR2DL4 (Fc, R&D system 2238-KR-050) (UniProt Q99706 24-242, limits assumed).
T18 construct: Bought Fc-tagged protein
The assay is described as follows: flow cytometry, tagged protein on scFv-K562 cells.

Assay [24] has as its target T19, NKG2A (Fc, R&D system 10511-NK-050) (UniProt P26715 94-233, limits assumed).
T19 construct: Bought Fc-tagged protein
The assay is described as follows: flow cytometry, tagged protein on scFv-K562 cells.

The target in assay [25] is T20, CD161 (Fc, R&D system 7448-CD-050) (UniProt Q12918 67-225).
T20 construct: Bought Fc-tagged protein
The assay can be described thus: flow cytometry, tagged protein on scFv-K562 cells.

For assay [26], the target named is T21, recombinant KIR2DS1 (extracellular domain-Fc-Avi, in-house) (human).
T21 construct: In-house; IL-2 signal peptide left out; also called soluble KIR2DS1
The assay is described as follows: flow cytometry, KIR-Fc on scFv-K562 cells.

For assay [27], the target named is T22, recombinant KIR2DS4 (extracellular domain-Fc-Avi, in-house) (human).
T22 construct: In-house; IL-2 signal peptide left out; also called soluble KIR2DS4
The assay is described as follows: flow cytometry, KIR-Fc on scFv-K562 cells.

Assay [28] has as its target T23, recombinant KIR2DS2 (extracellular domain-Fc-Avi, in-house) (human).
T23 construct: In-house; IL-2 signal peptide left out; also called soluble KIR2DS2
The assay can be described thus: flow cytometry, KIR-Fc on scFv-K562 cells.

For assay [29], the target named is T24, KIR2DL2 (22-225)-His, deglycosylated (human, UniProt P43627 22-225).
T24 construct: IL-2 signal peptide left out; treated with Protein Deglycosylation Mix II; also called recombinant KIR2DL2
The assay can be described thus: size exclusion chromatography of the mixed proteins; complex then crystallised.

T2 sequence (Q14943 22-340 limits assumed, change not shown): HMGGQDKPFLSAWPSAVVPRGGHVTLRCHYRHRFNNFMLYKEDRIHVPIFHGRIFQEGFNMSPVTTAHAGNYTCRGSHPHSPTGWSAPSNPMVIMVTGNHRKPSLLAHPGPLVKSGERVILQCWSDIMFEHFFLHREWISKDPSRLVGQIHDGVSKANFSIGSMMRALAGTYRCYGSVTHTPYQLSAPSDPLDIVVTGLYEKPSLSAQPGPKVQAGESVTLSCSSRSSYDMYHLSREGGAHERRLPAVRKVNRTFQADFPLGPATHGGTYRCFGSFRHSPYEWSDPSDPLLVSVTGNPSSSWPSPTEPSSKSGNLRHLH
Sequence of CD16a (Fc, R&D system 4325-FC-050) (P08637 17-208 limits assumed): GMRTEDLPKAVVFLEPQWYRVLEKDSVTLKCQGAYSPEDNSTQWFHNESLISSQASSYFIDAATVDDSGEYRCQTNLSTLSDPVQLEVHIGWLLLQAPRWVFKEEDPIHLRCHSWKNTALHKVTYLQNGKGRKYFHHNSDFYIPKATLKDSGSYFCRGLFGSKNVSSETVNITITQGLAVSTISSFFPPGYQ
T7 sequence (Q8N109 22-238 limits assumed): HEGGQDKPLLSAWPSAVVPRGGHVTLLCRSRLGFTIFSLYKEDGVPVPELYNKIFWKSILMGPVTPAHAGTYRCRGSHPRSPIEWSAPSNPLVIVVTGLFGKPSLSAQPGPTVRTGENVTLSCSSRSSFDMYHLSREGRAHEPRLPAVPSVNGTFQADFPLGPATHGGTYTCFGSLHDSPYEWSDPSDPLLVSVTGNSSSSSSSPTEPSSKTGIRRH
T14 sequence (O76036 22-258 limits assumed): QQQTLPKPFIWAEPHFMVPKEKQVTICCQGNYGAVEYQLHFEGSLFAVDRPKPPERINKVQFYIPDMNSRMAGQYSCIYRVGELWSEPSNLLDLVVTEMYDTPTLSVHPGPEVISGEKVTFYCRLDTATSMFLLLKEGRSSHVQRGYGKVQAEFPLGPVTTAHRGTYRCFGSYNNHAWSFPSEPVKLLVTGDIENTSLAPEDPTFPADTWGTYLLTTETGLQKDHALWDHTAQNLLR
T22 sequence (chain, as listed by the source): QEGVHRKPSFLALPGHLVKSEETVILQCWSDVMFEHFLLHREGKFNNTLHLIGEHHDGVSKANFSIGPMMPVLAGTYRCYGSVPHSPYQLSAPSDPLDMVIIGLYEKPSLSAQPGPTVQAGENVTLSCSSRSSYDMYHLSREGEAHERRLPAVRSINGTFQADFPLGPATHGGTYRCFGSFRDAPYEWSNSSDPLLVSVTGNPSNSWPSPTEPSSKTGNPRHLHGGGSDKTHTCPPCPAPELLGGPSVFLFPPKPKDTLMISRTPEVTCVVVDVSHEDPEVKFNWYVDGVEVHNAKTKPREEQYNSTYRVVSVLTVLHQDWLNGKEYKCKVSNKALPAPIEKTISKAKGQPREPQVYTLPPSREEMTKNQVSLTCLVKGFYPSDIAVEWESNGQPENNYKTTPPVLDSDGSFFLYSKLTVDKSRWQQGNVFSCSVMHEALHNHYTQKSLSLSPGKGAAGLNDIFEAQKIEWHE
T12 sequence (P43629 22-340 limits assumed): as the sequence (Q14943 22-340 limits assumed, change not shown) above, with V47I, G58S, M92V, R136K, W138G, S163P, R166L, L199P, L315P counted along it
Sequence of CD16b (Fc, R&D system 1597-FC-050) (O75015 17-200 limits assumed): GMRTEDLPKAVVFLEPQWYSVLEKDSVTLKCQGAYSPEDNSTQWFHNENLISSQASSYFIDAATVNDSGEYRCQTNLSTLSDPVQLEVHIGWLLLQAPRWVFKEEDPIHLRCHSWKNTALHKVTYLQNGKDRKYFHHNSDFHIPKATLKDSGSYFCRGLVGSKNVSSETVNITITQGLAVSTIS
Sequence of CD64 (Fc, R&D system 1257-FC-050) (P12314 16-288 limits assumed): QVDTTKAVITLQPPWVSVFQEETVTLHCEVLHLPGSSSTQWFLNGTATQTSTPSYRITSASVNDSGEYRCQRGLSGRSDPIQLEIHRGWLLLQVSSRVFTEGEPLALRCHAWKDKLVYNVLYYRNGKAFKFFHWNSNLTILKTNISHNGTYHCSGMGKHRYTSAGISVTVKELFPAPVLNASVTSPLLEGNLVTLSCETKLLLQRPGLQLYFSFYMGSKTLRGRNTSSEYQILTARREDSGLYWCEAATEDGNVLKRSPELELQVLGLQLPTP
T13 sequence (Q8NHL6 24-458 limits assumed): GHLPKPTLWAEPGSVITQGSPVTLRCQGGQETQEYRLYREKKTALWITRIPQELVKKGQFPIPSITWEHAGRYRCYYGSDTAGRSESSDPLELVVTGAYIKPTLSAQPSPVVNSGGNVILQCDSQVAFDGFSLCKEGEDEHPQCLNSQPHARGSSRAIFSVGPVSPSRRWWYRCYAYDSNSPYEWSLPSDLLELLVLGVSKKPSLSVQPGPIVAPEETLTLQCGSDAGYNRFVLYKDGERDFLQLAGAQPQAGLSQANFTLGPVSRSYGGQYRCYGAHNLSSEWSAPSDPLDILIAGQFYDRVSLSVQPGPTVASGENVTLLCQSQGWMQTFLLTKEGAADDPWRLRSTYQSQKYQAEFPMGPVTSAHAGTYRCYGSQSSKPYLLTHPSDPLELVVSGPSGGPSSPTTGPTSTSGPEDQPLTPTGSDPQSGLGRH
T21 sequence (chain, as listed by the source): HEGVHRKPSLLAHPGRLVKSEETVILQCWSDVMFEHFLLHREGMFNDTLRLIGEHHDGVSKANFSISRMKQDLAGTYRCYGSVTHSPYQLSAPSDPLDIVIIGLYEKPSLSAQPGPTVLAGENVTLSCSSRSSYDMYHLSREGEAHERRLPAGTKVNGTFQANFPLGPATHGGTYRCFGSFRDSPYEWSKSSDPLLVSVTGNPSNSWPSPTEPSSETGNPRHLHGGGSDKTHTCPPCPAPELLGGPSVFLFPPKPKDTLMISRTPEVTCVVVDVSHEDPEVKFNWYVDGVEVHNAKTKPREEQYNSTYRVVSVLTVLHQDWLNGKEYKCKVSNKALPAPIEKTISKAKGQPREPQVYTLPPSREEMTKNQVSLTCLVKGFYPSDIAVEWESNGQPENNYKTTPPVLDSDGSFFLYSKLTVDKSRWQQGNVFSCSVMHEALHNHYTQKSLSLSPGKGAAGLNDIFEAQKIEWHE
T1 sequence (chain, as listed by the source): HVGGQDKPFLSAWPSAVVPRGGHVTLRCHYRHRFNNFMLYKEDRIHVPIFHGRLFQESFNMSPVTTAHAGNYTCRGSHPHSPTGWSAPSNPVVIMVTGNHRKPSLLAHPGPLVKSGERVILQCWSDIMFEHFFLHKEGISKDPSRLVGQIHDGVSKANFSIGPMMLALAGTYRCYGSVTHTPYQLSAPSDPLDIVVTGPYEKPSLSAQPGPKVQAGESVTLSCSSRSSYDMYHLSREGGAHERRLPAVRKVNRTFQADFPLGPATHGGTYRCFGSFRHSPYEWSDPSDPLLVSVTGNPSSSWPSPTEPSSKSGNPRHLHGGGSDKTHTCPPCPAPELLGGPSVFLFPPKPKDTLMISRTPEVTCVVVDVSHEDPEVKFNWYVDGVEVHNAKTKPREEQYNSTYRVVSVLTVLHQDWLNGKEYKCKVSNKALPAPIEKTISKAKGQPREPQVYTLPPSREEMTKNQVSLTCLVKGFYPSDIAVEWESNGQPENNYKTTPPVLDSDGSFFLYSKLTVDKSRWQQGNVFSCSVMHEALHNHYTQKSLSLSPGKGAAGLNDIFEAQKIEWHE
Sequence of KIR2DS3 (Fc, prepared in-house) (Q14952 22-245 limits assumed): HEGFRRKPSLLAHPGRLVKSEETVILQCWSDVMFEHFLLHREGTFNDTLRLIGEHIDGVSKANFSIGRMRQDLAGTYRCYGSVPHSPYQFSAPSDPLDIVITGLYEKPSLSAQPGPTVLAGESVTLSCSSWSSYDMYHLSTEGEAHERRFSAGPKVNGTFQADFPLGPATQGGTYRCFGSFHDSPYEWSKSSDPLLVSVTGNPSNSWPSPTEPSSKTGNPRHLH
T19 sequence (P26715 94-233 limits assumed): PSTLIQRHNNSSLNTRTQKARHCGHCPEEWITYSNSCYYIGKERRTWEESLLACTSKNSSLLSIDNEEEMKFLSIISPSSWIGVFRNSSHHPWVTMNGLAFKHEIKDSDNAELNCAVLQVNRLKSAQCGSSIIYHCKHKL
T9 sequence (Q8N743 26-322 limits assumed): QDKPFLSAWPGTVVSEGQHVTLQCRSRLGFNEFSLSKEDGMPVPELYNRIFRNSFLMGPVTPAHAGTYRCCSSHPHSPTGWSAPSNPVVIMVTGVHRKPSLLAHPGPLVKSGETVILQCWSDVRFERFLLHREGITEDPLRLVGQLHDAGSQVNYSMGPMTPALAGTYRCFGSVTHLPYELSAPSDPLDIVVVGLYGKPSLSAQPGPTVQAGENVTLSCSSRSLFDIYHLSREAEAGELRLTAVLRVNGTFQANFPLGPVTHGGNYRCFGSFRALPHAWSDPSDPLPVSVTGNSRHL
T23 sequence (chain, as listed by the source): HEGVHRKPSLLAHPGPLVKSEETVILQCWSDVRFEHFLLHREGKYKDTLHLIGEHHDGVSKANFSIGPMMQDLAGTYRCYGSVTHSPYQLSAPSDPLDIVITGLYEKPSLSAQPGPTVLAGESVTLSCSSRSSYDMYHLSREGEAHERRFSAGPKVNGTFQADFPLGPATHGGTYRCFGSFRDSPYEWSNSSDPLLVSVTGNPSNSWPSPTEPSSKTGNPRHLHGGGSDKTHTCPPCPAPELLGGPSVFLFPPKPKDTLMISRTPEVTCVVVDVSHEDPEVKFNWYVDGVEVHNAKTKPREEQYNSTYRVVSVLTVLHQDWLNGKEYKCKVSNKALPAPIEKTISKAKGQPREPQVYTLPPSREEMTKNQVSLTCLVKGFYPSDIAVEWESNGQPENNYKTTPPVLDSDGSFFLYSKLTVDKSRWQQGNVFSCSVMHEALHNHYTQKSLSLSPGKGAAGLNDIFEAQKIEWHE
T6 sequence (P43626 22-245 limits assumed): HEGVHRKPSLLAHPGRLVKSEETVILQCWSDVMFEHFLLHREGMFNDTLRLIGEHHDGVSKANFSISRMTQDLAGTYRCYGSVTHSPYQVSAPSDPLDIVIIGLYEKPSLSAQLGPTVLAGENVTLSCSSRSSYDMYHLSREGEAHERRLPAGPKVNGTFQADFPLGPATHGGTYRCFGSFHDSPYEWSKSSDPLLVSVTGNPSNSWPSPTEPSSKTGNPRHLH

B1: membrane-type a3DL1-DS6 scFv (scFv)
scFv: DYKDDDDKGSGQMQLVQSGAEVKKPGESLKISCKGSGYSFTSYWIGWVRQMPGKGPEWMGIIYPGDSYTNYSPSFQGHVTISADKSISTAYLQWSSLKASDTAMYYCARLAPTVEDAFDIWGQGTLVTVSSGGGGSGGGGSGGGGSQSVLTQPPSVSEAPGQRVTISCTGSSSNIGAGYDVHWYQQLPGTAPKLLIYGNSNRPSGVPDRFSGSKSGTSASLAITGLQAEDEADYYCQSYDSSLSEEVFGTGTKVTVLALSNSIMYFSHFVPVFLPAKPTTTPAPRPPTPAPTIASQPLSLRPEACRPAAGGAVHTRGLDFACDIYIWAPLAGTCGVLLLSLVITLYCNH
notes: On K562 cells
As for B1, the results for the binding result in assay [1] and in assay [2] were “binds” and “no binding (tested: 0.1 µM)”, respectively.

B2: membrane-type a2DL2/3-DS10 scFv (scFv)
scFv: DYKDDDDKGSGQVQLVQSGAEVKKPGSSVKVSCKASGGTFSSFAISWVRQAPGQGLEWMGGIIPIFGTANYAQKFQGRVTITADESTSTAYMELSSLRSEDTAVYYCARVSGTTGGYYYGMDVWGQGTLVTVSSGGGGSGGGGSGGGGSAIRMTQSPSSVSASVGDRVTITCRASQGIGNWLAWYQQKPGRAPKLLISTASSLQSGVPSRFSGGGSGRGFTLTISSLQLEDFATYYCQQSYITPWTFGQGTKVEIKALSNSIMYFSHFVPVFLPAKPTTTPAPRPPTPAPTIASQPLSLRPEACRPAAGGAVHTRGLDFACDIYIWAPLAGTCGVLLLSLVITLYCNH
notes: On K562 cells; also called a2DL2/3-DS10 WT scFv
B2: the binding result in [3], in [4], in assay [5], in assay [6], in assay [7] and in [8] was “no binding (tested: 0.1 µM)” in each case. Also, the binding result in assay [9], in [10], in assay [11], in [12], in assay [13] and in [14] was “no binding (tested: 0.1 µM)” in each case. The binding result in assay [15], in assay [16], in assay [17], in assay [18], in [19] and in assay [20] was “no binding (tested: 0.1 µM)” each time. In addition, the binding result in assay [21], in [22], in [23], in assay [24], in assay [25] and in assay [26] was “no binding (tested: 0.1 µM)” each time. Further, the binding result in assay [27] and in [28] was “no binding (tested: 0.1 µM)” each time.

B3: Fab fragment of a2DL2/3-DS10 (Fab, V domains shown)
VH: QVQLVQSGAEVKKPGSSVKVSCKASGGTFSSFAISWVRQAPGQGLEWMGGIIPIFGTANYAQKFQGRVTITADESTSTAYMELSSLRSEDTAVYYCARVSGTTGGYYYGMDVWGQGTLVTVSS
VL: AIRMTQSPSSVSASVGDRVTITCRASQGIGNWLAWYQQKPGRAPKLLISTASSLQSGVPSRFSGGGSGRGFTLTISSLQLEDFATYYCQQSYITPWTFGQGTKVEIKV
notes: Signal peptides left out; also called a2DL2/3-DS10 Fab; 61_3092_02_F10_Fab
Take B3: the binding result in [29] was “binds”.

Source of the values: patent publication EP4610277A1 (Daiichi Sankyo Company, Limited, dated 2025).
